± gives the standard deviation of the averaged measurements.
Assay: total protein half-life in vivo (active degradation + dilution); higher = more stable protein
[1] = E. coli NCM3722 delta-smpB, growth: N-lim chemostat, doubling time 6 h
[2] = wild type E. coli NCM3722, growth: C-lim chemostat, doubling time 3 h
[3] = wild type E. coli NCM3722, growth: C-lim chemostat, doubling time 6 h
[4] = wild type E. coli NCM3722, growth: C-lim chemostat, doubling time 12 h
[5] = wild type E. coli NCM3722, growth: N-lim chemostat, doubling time 6 h
[6] = wild type E. coli NCM3722, growth: N-lim chemostat, doubling time 12 h
[7] = wild type E. coli NCM3722, growth: P-lim chemostat, doubling time 6 h
[8] = wild type E. coli NCM3722, growth: P-lim chemostat, doubling time 12 h
[9] = E. coli NCM3722 delta-clpP delta-lon delta-hslV, growth: N-lim chemostat, doubling time 6 h
[10] = E. coli NCM3722 delta-clpP, growth: N-lim chemostat, doubling time 6 h
[11] = E. coli NCM3722 delta-hslV, growth: N-lim chemostat, doubling time 6 h
[12] = E. coli NCM3722 delta-lon, growth: N-lim chemostat, doubling time 6 h

## MSYLNLRLYQRNTQCLHIRKHRLAGFFVRLVVACAFAAQAPLSSADLYFNPRFLADDPQAVADLSRFENGQELPPGTYRVDIYLNNGYMATRDVTFNTGDSEQGIVPCLTRAQLASMGLNTASVAGMNLLADDACVPLTTMVQDATAHLDVGQQRLNLTIPQAFMSNRARGYIPPELWDPGINAGLLNYNFSGNSVQNRIGGNSHYAYLNLQSGLNIGAWRLRDNTTWSYNSSDRSSGSKNKWQHINTWLERDIIPLRSRLTLGDGYTQGDIFDGINFRGAQLASDDNMLPDSQRGFAPVIHGIARGTAQVTIKQNGYDIYNSTVPPGPFTINDIYAAGNSGDLQVTIKEADGSTQIFTVPYSSVPLLQREGHTRYSITAGEYRSGNAQQEKTRFFQSTLLHGLPAGWTIYGGTQLADRYRAFNFGIGKNMGALGALSVDMTQANSTLPDDSQHDGQSVRFLYNKSLNESGTNIQLVGYRYSTSGYFNFADTTYSRMNGYNIETQDGVIQVKPKFTDYYNLAYNKRGKLQLTVTQQLGRTSTLYLSGSHQTYWGTSNVDEQFQAGLNTAFEDINWTLSYSLTKNAWQKGRDQMLALNVNIPFSHWLRSDSKSQWRHASASYSMSHDLNGRMTNLAGVYGTLLEDNNLSYSVQTGYAGGGDGNSGSTGYATLNYRGGYGNANIGYSHSDDIKQLYYGVSGGVLAHANGVTLGQPLNDTVVLVKAPGAKDAKVENQTGVRTDWRGYAVLPYATEYRENRVALDTNTLADNVDLDNAVANVVPTRGAIVRAEFKARVGIKLLMTLTHNNKPLPFGAMVTSESSQSSGIVADNGQVYLSGMPLAGKVQVKWGEEENAHCVANYQLPPESQQQLLTQLSAECR
[1]
  total protein half-life in vivo: 5.97 ± 0.21 h
[2]
  total protein half-life in vivo: 3.14 h
[3]
  total protein half-life in vivo: 6.02 h
[4]
  total protein half-life in vivo: > 16 h
[5]
  total protein half-life in vivo: > 8 h
[6]
  total protein half-life in vivo: > 16 h
[7]
  total protein half-life in vivo: 6.2 h
[8]
  total protein half-life in vivo: > 16 h

## MFPEYRDLISRLKNENPRFMSLFDKHNKLDHEIARKEGSDGRGYNAEVVRMKKQKLQLKDEMLKILQQESVKEV [P0ACW6]
[2]
  total protein half-life in vivo: 1.33 h
[3]
  total protein half-life in vivo: 1.87 ± 0.1 h
[4]
  total protein half-life in vivo: 1.75 h

## MKKTAAIISACMLTFALSACSGSNYVMHTNDGRTIVSDGKPQTDNDTGMISYKDANGNKQQINRTDVKEMVELDQ
[9]
  total protein half-life in vivo: 5.09 ± 0.4 h
[10]
  total protein half-life in vivo: 5.11 ± 0.78 h
[11]
  total protein half-life in vivo: 5.48 ± 0.12 h
[1]
  total protein half-life in vivo: 5.68 ± 1.2 h
[2]
  total protein half-life in vivo: 3.35 ± 0.3 h
[3]
  total protein half-life in vivo: 5.25 ± 0.68 h
[4]
  total protein half-life in vivo: 10.3 ± 0.96 h
[5]
  total protein half-life in vivo: 5.312 ± 0.043 h
[6]
  total protein half-life in vivo: 11.3 h
[7]
  total protein half-life in vivo: 4.83 ± 0.12 h
[8]
  total protein half-life in vivo: 11.1 ± 0.28 h

## METRREERIGQLLQELKRSDKLHLKDAAALLGVSEMTIRRDLNNHSAPVVLLGGYIVLEPRSASHYLLSDQKSRLVEEKRRAAKLAATLVEPDQTLFFDCGTTTPWIIEAIDNEIPFTAVCYSLNTFLALKEKPHCRAFLCGGEFHASNAIFKPIDFQQTLNNFCPDIAFYSAAGVHVSKGATCFNLEELPVKHWAMSMAQKHVLVVDHSKFGKVRPARMGDLKRFDIVVSDCCPEDEYVKYAQTQRIKLMY [P0ACK5]
[9]
  total protein half-life in vivo: 6.81 ± 0.62 h
[10]
  total protein half-life in vivo: 6.08 ± 0.73 h
[11]
  total protein half-life in vivo: 6.59 ± 0.9 h
[12]
  total protein half-life in vivo: 6.9 ± 1.5 h
[1]
  total protein half-life in vivo: 5.02 ± 0.12 h
[2]
  total protein half-life in vivo: 2.74 h
[3]
  total protein half-life in vivo: 6.23 ± 0.15 h
[4]
  total protein half-life in vivo: 9.99 ± 0.58 h
[5]
  total protein half-life in vivo: 5.81 ± 0.078 h
[6]
  total protein half-life in vivo: 10.57 ± 0.023 h
[7]
  total protein half-life in vivo: 5.99 ± 0.49 h

## MISVFDIFKIGIGPSSSHTVGPMKAGKQFTDDLIARNLLKDVTRVVVDVYGSLSLTGKGHHTDIAIIMGLAGNLPDTVDIDSIPSFIQDVNTHGRLMLANGQHEVEFPVDQCMNFHADNLSLHENGMRITALAGDKVVYSQTYYSIGGGFIVDEEHFGQQDSAPVEVPYPYSSAADLQKHCQETGLSLSGLMMKNELALHSKEELEQHLANVWEVMRGGIERGISTEGVLPGKLRVPRRAAALRRMLVSQDKTTTDPMAVVDWINMFALAVNEENAAGGRVVTAPTNGACGIIPAVLAYYDKFIREVNANSLARYLLVASAIGSLYKMNASISGAEVGCQGEVGVACSMAAAGLAELLGASPAQVCIAAEIAMEHNLGLTCDPVAGQVQVPCIERNAIAAVKAVNAARMALRRTSEPRVCLDKVIETMYETGKDMNAKYRETSRGGLAMKIVACD
[9]
  total protein half-life in vivo: 3.9 h

## MAELSDQEMLRYNRQIILRGFDFDGQEALKDSRVLIVGLGGLGCAASQYLASAGVGNLTLLDFDTVSLSNLQRQTLHSDATVGQPKVESARDALTRINPHIAITPVNALLDDAELAALIAEHDLVLDCTDNVAVRNQLNAGCFAAKVPLVSGAAIRMEGQITVFTYQDGEPCYRCLSRLFGENALTCVEAGVMAPLIGVIGSLQAMEAIKMLAGYGKPASGKIVMYDAMTCQFREMKLMRNPGCEVCGQ
[9]
  total protein half-life in vivo: 5.3 ± 1.4 h
[10]
  total protein half-life in vivo: 4.37 ± 0.4 h
[11]
  total protein half-life in vivo: 4.1 ± 0.1 h
[12]
  total protein half-life in vivo: 6.67 ± 1.7 h
[1]
  total protein half-life in vivo: 4.36 ± 0.4 h
[2]
  total protein half-life in vivo: 3.03 ± 0.46 h
[3]
  total protein half-life in vivo: 6.09 ± 0.5 h
[4]
  total protein half-life in vivo: 11.3 ± 0.97 h
[5]
  total protein half-life in vivo: 4.66 ± 0.53 h
[6]
  total protein half-life in vivo: 9.95 h
[7]
  total protein half-life in vivo: 5.7448 ± 0.0056 h
[8]
  total protein half-life in vivo: 13.2 ± 1.6 h

## MQGTKIRLLAGGLLMMATAGYVQADALQPDPAWQQGTLSNGLQWQVLTTPQRPSDRVEIRLLVNTGSLAESTQQSGYSHAIPRIALTQSGGLDAAQARSLWQQGIDPKRPMPPVIVSYDTTLFNLSLPNNRNDLLKEALSYLANATGKLTITPETINHALQSQDMVATWPADTKEGWWRYRLKGSTLLGHDPADPLKQPVEAEKIKDFYQKWYTPDAMTLLVVGNVDARSVVDQINKTFGELKGKRETPAPVPTLSPLRAEAVSIMTDAVRQDRLSIMWDTPWQPIRESAALLRYWRADLAREALFWHVQQALSASNSKDIGLGFDCRVLYLRAQCAINIESPNDKLNSNLNLVARELAKVRDKGLPEEEFNALVAQKKLELQKLFAAYARADTDILMGQRMRSLQNQVVDIAPEQYQKLRQDFLNSLTVEMLNQDLRQQLSNDMALILLQPKGEPEFNMKALQAVWDQIMAPSTAAATTSVATDDVHPEVTDIPPAQ
[9]
  total protein half-life in vivo: 5.67 ± 0.23 h
[10]
  total protein half-life in vivo: 6.56 ± 1.4 h
[11]
  total protein half-life in vivo: 6.33 ± 0.55 h
[1]
  total protein half-life in vivo: 6.16 ± 0.15 h
[2]
  total protein half-life in vivo: 3.02 ± 0.35 h
[3]
  total protein half-life in vivo: 6.42 ± 0.41 h
[4]
  total protein half-life in vivo: 9.83 ± 0.8 h
[5]
  total protein half-life in vivo: 6.08 ± 0.24 h
[6]
  total protein half-life in vivo: 12.55 ± 0.063 h
[7]
  total protein half-life in vivo: 6.3 ± 0.32 h
[8]
  total protein half-life in vivo: 14.2 ± 0.33 h

From the supplement of paper PMC11246515
